# Data as given in US20050147555A1 (BRACCO SUISSE, published 2005).
# Positions of bridges follow the written chain, without caps; N, C: chain ends. Groups on a side chain read outwards from the residue. Primed or numbered codes have the meaning given here. Chains are numbered I, II in the order given. No end group written: not given here. *: point of attachment. ivDde′ = 1-(4,4-dimethyl-2,6-dioxocyclohex-1-ylidene)-3-methylbutyl, CC(C)CC(=C1C(=O)CC(C)(C)CC1=O)*; Biotin = O=C1N[C@H]2[C@H](CS[C@H]2CCCCC(=O)*)N1; AEEA = NCCOCCOCC(=O)O
# B1: P6-D (peptide)
# peptide: Ac-GDSRVCWEDSWGGEVCFRYDPGGGK-NH2
# modifications: disulfide 6-16 (inferred)
# B2: D2 (peptide)
# peptide 1: AGPTWCEDDWYYCWLFGTGGGK
# peptide 2: AGPTWCEDDWYYCWLFGTK
# modifications: not fully specified; N-acetyl; C6-C13 disulfide; J (8-amino-3,6-dioxaoctanoyl) between Thr18 and the C-terminal Lys amide, whose side chain is joined to the linker; N-acetyl; C6-C13 disulfide; C-terminal amide; Lys22 side chain bears branch/linker
# B3: P8-D (peptide)
# peptide: Ac-GDPDTCTMWGDSGRWYCFPADPGGGK-NH2
# modifications: disulfide 6-17 (inferred)
# B4: P4 (peptide)
# peptide: AGDSWCSTEYTYCEMIGT
# modifications: disulfide 6-13; not fully specified
# B5: D3 (peptide)
# peptide 1: VCWEDSWGGEVCFRYDPGGGK
# peptide 2: VCWEDSWGGEVCFRYDPGGGK
# modifications: not fully specified; N-acetyl; C2-C12 disulfide; C-terminal Lys amide, side chain joined to linker; N-acetyl; C2-C12 disulfide; C-terminal amide; Lys21 side chain bears Biotin-JJK branch and linker
# B6: P10-D (peptide)
# peptide: Ac-AQAFPRFGGDDYWIQQYLRYTDGGK-NH2
# B7: D17 (peptide)
# peptide 1: AQDWYYDEILGRGGRGGRGGK
# peptide 2: VCWEDSWGGEVCFRYDPGGGK
# modifications: not fully specified; N-acetyl; C2-C12 disulfide; C-terminal amide; Lys21 side chain joined to JJ-glutaryl linker; N-acetyl; J (8-amino-3,6-dioxaoctanoyl) between Leu10 and the next Gly; C-terminal Lys side chain bears the branching Lys; C-terminal amide
# B8: 99mTc-labeled D18 (peptide)
# peptide 1: Ac-APGTWCDYDWEYCWLGTFGGGK-NH2
# peptide 2: Ac-GVDFRCEWSDWGEVGCRSPDYGGGK-NH2
# modifications: disulfide I:6-I:13, II:6-II:16; not fully specified (some residues, bridges); printed as Ac-APGTWC*DYDWEYC*WLGTFGGGK{PnAO6-Glut-K[Ac-GVDFRC*EWSDWGEVGC*RSPDYGGGK(JJ-Glut)-NH2]}—NH2; also: 99mTc complex on PnAO6
# notes: also called scrambled derivative of D10
# B9: P13-D (peptide)
# peptide: Ac-AQDWYYDEILSMADQLRHAFLSGG-NH2
# B10: P6 (peptide)
# peptide: GDSRVCWEDSWGGEVCFRYDP
# modifications: disulfide 6-16 (inferred)
# B11: P12-XB (peptide)
# peptide: Ac-AGPTWCEDDWYYCWLFGTGGGK([AEEA-AEEA-Biotin])-NH2
# modifications: disulfide 6-13
# SMILES: CC(=O)N[C@@H](C)C(=O)NCC(=O)N1CCC[C@H]1C(=O)N[C@H](C(=O)N[C@@H](Cc1c[nH]c2ccccc12)C(=O)N[C@H]1CSSC[C@@H](C(=O)N[C@@H](Cc2c[nH]c3ccccc23)C(=O)N[C@@H](CC(C)C)C(=O)N[C@@H](Cc2ccccc2)C(=O)NCC(=O)N[C@H](C(=O)NCC(=O)NCC(=O)NCC(=O)N[C@@H](CCCCNC(=O)COCCOCCNC(=O)COCCOCCNC(=O)CCCC[C@@H]2SC[C@@H]3NC(=O)N[C@@H]32)C(N)=O)[C@@H](C)O)NC(=O)[C@H](Cc2ccc(O)cc2)NC(=O)[C@H](Cc2ccc(O)cc2)NC(=O)[C@H](Cc2c[nH]c3ccccc23)NC(=O)[C@H](CC(=O)O)NC(=O)[C@H](CC(=O)O)NC(=O)[C@H](CCC(=O)O)NC1=O)[C@@H](C)O
# notes: Free monomeric peptide
# B12: P9-D (peptide)
# peptide: Ac-AQEPEGYAYWEVITLYHEEDGDGGK-NH2
# B13: Fluorescein labeled P12-G (peptide)
# peptide: Ac-AGPTWCEDDWYYCWLFGTGGGK-NH2
# modifications: disulfide 6-13; also: fluorescein label (site not given here)
# B14: P3-D (peptide)
# peptide: Ac-AGWLECYAEFGHCYNFGTGGGK-NH2
# modifications: disulfide 6-13 (inferred)
# B15: P13 conjugated to microbubbles (peptide)
# peptide: AQDWYYDEILSMADQLRHAFLSGG
# modifications: also: conjugated to microbubbles
# B16: P2-D (peptide)
# peptide: Ac-AGWIECYHPDGICYHFGTGGGK-NH2
# modifications: disulfide 6-13 (inferred)
# B17: P12 (peptide)
# peptide: AGPTWCEDDWYYCWLFGT
# modifications: disulfide 6-13
# notes: the list holds only the microbubble conjugate m56 and other P12 derivatives
# B18: F1 (peptide)
# peptide: Ac-DWYYGGGK-NH2
# B19: P7-E (peptide)
# peptide: Ac-GDWWECK(ivDde′)REEYRNTTWCAWADPGGGK-NH2
# modifications: disulfide 6-17 (inferred)
# B20: D24 (peptide)
# peptide 1: AGPTWCEDDWYYCWLFGTGGGK
# peptide 2: VCWEDSWGGEVCFRYDPGGGK
# modifications: not fully specified; N-acetyl; C2-C12 disulfide; C-terminal amide; Lys21 side chain joined to JJ-glutaryl linker; N-acetyl; C6-C13 disulfide; C-terminal amide; Lys22 side chain bears SATA-JJ-Lys branch
# B21: PG-1 (peptide)
# peptide: Ac-ERVTTCWPGEYGGVECYSVAY-NH2
# modifications: not fully specified (bridges); printed as Ac-ERVTTCWPGEYGGVECYSVAY—NH2; cysteine pairing not given here
# B22: D1 (peptide)
# peptide 1: AGPTWCEDDWYYCWLFGTGGGK
# peptide 2: VCWEDSWGGEVCFRYDPGGGK
# modifications: not fully specified; N-acetyl; C2-C12 disulfide; C-terminal Lys amide (printed as NH(CH2)4-(S)-CH(..NH)CONH2), side chain joined to linker; N-acetyl; C6-C13 disulfide; C-terminal amide; Lys22 side chain bears branch/linker
# notes: J = 8-amino-3,6-dioxaoctanoyl; also called DI
# B23: 125I-labeled D5 (peptide)
# peptide 1: VCWEDSWGGEVCFRYDPGGGK
# peptide 2: AGPTWCEDDWYYCWLFGTGGGK
# modifications: not fully specified; N-acetyl; C6-C13 disulfide; C-terminal Lys amide, side chain carries the branching Lys; 125I Bolton-Hunter label on the free amine; N-acetyl; C2-C12 disulfide; C-terminal amide; Lys21 side chain joined to JJ-glutaryl linker
# B24: D23 (peptide)
# P12-derived peptide: Ac-AGPTWCEDDWYYCWLFGTGGGK-NH2
# truncated P6-derived peptide: Ac-VCWEDSWGGEVCFRYDPGGGK-NH2
# modifications: disulfide I:6-I:13, II:2-II:12; not fully specified (bridges)
# notes: Free, not on microbubbles (the list holds only the conjugate m37); The text says only 'corresponding free' dimeric peptide; also called free dimer
# B25: P11-D (peptide)
# peptide: Ac-AQGDYVYWEIIELTGATDHTPPGGGK-NH2
# Experiments:
# [1] = molecular target: T1, KDR (VEGFR-2, Flk-1), full-length receptor on cells (human, UniProt P35968 20-1356); test: cell-based or functional assay
# T1 sequence (P35968 20-1356): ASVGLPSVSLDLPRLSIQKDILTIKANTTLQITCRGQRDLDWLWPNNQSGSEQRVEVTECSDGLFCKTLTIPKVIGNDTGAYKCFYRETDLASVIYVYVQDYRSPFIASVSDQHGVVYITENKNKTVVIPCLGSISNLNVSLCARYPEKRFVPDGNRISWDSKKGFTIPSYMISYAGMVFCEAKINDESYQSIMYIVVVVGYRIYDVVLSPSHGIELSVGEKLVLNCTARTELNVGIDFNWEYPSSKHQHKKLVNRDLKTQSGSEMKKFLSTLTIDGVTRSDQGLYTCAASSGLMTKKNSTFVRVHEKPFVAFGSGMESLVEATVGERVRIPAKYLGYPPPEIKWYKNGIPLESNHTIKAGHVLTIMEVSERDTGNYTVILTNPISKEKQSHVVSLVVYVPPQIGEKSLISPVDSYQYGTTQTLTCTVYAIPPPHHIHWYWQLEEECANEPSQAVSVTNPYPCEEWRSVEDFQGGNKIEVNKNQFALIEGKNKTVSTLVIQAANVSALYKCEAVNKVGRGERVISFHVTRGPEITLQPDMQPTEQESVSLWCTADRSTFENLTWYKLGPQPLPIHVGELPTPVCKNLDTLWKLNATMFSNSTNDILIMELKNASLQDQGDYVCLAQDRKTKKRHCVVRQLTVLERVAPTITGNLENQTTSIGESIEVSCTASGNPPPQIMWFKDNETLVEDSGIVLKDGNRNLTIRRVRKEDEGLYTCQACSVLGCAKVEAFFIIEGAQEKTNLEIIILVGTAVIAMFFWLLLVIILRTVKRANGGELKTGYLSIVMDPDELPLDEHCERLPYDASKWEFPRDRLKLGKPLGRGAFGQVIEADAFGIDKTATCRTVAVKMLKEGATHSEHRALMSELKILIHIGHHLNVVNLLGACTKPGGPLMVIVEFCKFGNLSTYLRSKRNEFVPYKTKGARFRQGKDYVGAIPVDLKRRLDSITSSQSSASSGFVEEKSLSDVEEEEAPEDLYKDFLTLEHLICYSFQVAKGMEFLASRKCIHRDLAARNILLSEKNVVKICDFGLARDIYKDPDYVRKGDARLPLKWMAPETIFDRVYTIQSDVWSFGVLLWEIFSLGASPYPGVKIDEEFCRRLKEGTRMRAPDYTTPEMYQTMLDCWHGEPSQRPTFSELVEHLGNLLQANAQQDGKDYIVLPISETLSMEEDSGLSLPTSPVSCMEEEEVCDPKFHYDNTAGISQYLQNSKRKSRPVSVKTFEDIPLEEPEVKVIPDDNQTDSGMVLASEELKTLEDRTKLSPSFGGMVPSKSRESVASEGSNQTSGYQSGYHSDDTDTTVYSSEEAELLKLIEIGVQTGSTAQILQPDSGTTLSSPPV
# [2] = molecular target: T1, KDR (VEGFR-2, Flk-1), full-length …; test: competition with 125I-labeled VEGF for binding to KDR-transfected 293H cells, % inhibition of specific binding
# Source text: (§1) After washing the cells, the bound radioactivity was quantitated on a gamma counter.
# [3] = molecular target: T2, KDR-Fc (chimeric fusion of Ig Fc region with human KDR, R&D Systems #357-KD-050) (human, UniProt P35968 20-764); test: fluorescence polarisation against KDR-Fc
# T2 construct: Bought; also called KDR Fc fusion; not shown: Ig Fc region of the bought chimera
# T2 sequence (P35968 20-764, stated change not applied): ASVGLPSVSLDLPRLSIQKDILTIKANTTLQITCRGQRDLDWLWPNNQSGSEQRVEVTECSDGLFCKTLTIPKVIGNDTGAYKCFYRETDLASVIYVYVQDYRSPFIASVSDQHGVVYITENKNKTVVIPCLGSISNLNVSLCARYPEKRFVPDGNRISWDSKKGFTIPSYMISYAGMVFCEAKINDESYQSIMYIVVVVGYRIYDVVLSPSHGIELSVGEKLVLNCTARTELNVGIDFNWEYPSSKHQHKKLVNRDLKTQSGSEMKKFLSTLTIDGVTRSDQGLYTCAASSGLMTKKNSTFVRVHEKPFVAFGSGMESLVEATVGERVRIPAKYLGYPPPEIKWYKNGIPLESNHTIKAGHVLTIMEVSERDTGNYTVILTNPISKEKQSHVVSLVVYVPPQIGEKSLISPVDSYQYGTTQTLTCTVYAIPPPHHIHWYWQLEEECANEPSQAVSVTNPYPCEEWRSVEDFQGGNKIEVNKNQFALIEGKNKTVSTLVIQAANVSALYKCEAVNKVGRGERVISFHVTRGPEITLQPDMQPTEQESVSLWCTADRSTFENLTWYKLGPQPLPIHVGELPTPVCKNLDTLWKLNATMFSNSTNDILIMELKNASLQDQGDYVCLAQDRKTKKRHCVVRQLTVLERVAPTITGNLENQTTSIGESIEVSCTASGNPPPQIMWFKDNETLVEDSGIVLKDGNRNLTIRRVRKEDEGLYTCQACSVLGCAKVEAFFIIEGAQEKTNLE
# [4] = molecular target: T1, KDR (VEGFR-2, Flk-1), full-length …; test: binding of the 99mTc-labeled scrambled dimer (D18 by legend paragraph 74; name box empty) to KDR- and mock-transfected 293H cells with and without 40% mouse serum, bound CPM
# Procedure: Cells were used 24 h after transfection, and to prepare the cells for the assay, they were washed 1× with 100 μL of room temperature opti-MEMI with 0.1% HSA. […] Each dilution was added to three separate wells of mock and KDR-transfected cells. After incubating at room temperature for 1 h, the plates were washed 5 times with 100 μL of cold binding buffer (opti-MEMI with 0.1% HSA). 100 μL of solubilizing solution (0.5 N NaOH) was added to each well, and the plates were incubated at 37° C. for 10 minutes. The solubilizing solution in each well was mixed by pipeting up and down, and transferred to 1.2 mL tubes. Each well was washed once with 100 μL of solubilizing solution and the washes were added to the corresponding 1.2 mL tube.
# [5] = molecular target: T1, KDR (VEGFR-2, Flk-1), full-length …; test: competition with 125I-VEGF on KDR-transfected 293H cells
# Procedure: Cells were used 24 h after transfection, and to prepare the cells for the assay, they were washed 3 times with room temperature M199 medium and placed in the refrigerator. […] Each dilution was added to three separate wells of mock and KDR transfected cells. After incubating at 4° C. for 2 h, the plates were washed 5 times with cold binding buffer, gently blotted dry and checked under a microscope for cell loss. 100 μL of solubilizing solution (2% Triton X-100, 10% Glycerol, 0.1% BSA) was added to each well and the plates were incubated at room temperature for 30 minutes. The solubilizing solution in each well was mixed by pipeting up and down, and transferred to 1.2 mL tubes. Each well was washed twice with 100 μL of solubilizing solution and the washes were added to the corresponding 1.2 mL tube.
# [6] = molecular target: T3, murine KDR-Fc (recombinant, R&D Systems #443-KD-050) (murine, UniProt P35918 20-762); test: SPR (BIAcore), murine KDR-Fc 2700 RU; KD1 = kd1/ka1
# T3 construct: Bought; also called rmKDR-Fc; recombinant murine KDR-Fc; not shown: Ig Fc region of the bought chimera
# T3 sequence (P35918 20-762): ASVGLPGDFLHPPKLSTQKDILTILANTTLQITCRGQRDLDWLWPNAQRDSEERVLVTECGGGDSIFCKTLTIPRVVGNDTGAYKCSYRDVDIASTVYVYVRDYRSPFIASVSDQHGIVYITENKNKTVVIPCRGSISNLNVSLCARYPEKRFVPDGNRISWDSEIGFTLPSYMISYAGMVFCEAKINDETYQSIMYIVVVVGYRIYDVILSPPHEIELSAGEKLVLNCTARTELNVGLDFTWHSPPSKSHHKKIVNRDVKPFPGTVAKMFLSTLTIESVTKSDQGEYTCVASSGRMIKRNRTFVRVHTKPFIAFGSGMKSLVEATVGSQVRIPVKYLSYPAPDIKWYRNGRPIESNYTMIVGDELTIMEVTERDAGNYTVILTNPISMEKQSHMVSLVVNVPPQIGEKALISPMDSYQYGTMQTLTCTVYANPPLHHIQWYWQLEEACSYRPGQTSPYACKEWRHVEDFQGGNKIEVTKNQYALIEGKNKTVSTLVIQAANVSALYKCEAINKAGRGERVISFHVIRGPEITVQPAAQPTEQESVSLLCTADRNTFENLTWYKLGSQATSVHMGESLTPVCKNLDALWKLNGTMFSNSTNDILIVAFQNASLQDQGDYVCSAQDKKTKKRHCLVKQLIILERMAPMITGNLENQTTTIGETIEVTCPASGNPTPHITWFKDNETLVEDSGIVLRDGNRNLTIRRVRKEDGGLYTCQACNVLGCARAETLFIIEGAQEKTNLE
# [7] = molecular target: T3, murine KDR-Fc (recombinant, R&D Systems …); test: SPR (BIAcore), murine KDR-Fc 5000 RU; KD1 = kd1/ka1
# Procedure: All samples were injected in duplicate. For association, peptides were injected at 30 μL/min for 3 minutes using the kinject program. Following a 10 minute dissociation, any remaining peptide was stripped from the rmKDR-Fc surface with a quickinject of 50 mM NaOH+1M NaCl for 12s at 75 μL/min.
# Sensorgrams were analyzed using the simultaneous ka/kd fitting program in the BIAevaluation software 3.1.
# [8] = molecular target: T1, KDR (VEGFR-2, Flk-1), full-length …; test: P13-conjugated microbubbles on KDR-transfected 293H cells in the presence of rising free dimer (f5), % binding
# Procedure: (§2) At the end of the incubation, the transfected cells were rinsed three times in PBS and examined under a microscope. Binding of the conjugated bubbles was quantified and expressed as a percentage of the surface covered by the targeted microbubbles.
# [9] = molecular target: T1, KDR (VEGFR-2, Flk-1), full-length …; test: competition: corresponding free peptide against P12-conjugated microbubbles on KDR-transfected 293H cells, % binding (surface covered, relative)
# Procedure: (§3) The transfected cells were incubated with a suspension of peptide-conjugated microbubbles in presence or absence of the corresponding free peptide (between 100 μM to 3 nM). Competition was also performed using a non-binding control peptide as a competing compound. At the end of the incubation, the transfected cells were rinsed three times in PBS and examined under a microscope. Binding of the conjugated bubbles was quantified and expressed as a percent of the surface covered by the targeted microbubbles.
# [10] = molecular target: T1, KDR (VEGFR-2, Flk-1), full-length …; test: displacement of P12-XB/streptavidin-HRP complex (5.5 nM) from KDR-expressing cells
# Procedure: After determining the specific binding under each experimental condition, the IC₅₀ for each peptide was determined (where possible).
# [11] = molecular target: T1, KDR (VEGFR-2, Flk-1), full-length …; test: competition with 125I-VEGF for specific binding to KDR-transfected 293H cells, % inhibition
# Source text: as §1
# [12] = molecular target: T1, KDR (VEGFR-2, Flk-1), full-length …; test: binding of the 125I-labeled dimer to KDR- and mock-transfected 293H cells with and without 40% mouse serum, CPM bound
# Procedure: Binding was performed with and without 40% mouse serum to evaluate the serum effect on binding to KDR-transfected cells. After washing away the unbound compound, the cells in each well were lysed with 0.5 N NaOH and the lysates were counted with a gamma counter.
# [13] = molecular target: T1, KDR (VEGFR-2, Flk-1), full-length …; test: competition: corresponding free peptide against D23-conjugated microbubbles on KDR-transfected 293H cells, % binding (surface covered, relative)
# Procedure: as §3
# [14] = molecular target: T1, KDR (VEGFR-2, Flk-1), full-length …; test: competition: free dimer against P13-conjugated microbubbles on KDR-transfected 293H cells, % binding
# Procedure: as §2
binder,measurement,setting,value
B1,"IC50, VEGF-induced KDR phosphorylation in HUVECs",[1],1000 nM
same,VEGF-induced KDR phosphorylation in HUVECs (immunoblot),[1],≥ 50 % inhibition at 10 µM
B2,binding result,[2],binds
B3,VEGF-induced KDR phosphorylation in HUVECs (immunoblot),[1],≥ 50 % inhibition at 10 µM
B4,Kd,[3],> 2000 nM
B5,binding result,[2],binds
B6,VEGF-induced KDR phosphorylation in HUVECs (immunoblot),[1],≥ 50 % inhibition at 10 µM
B7,"IC50, VEGF-induced migration of HUVECs",[1],~250 nM
B8,binding result,[4],no binding (tested: 10.0 uCi/mL)
B9,binding result,[2],binds
B10,% inhibition of 125I-VEGF binding at 0.3 µM,[5],52.3%
same,% inhibition of 125I-VEGF binding at 30 µM,[5],96.3%
B11,"IC50, VEGF-induced KDR phosphorylation in HUVECs",[1],100 nM
same,% inhibition of 125I-VEGF binding at 0.3 µM,[5],81%
same,% inhibition of 125I-VEGF binding at 30 µM,[5],104%
B12,VEGF-induced KDR phosphorylation in HUVECs (immunoblot),[1],≥ 50 % inhibition at 10 µM
B13,Kd,[6],36.4 nM
same,Kd,[7],33.6 nM
B14,VEGF-induced KDR phosphorylation in HUVECs (immunoblot),[1],≥ 50 % inhibition at 10 µM
B15,binding result,[8],binds
B16,VEGF-induced KDR phosphorylation in HUVECs (immunoblot),[1],≥ 50 % inhibition at 10 µM
B17,binding result,[9],binds
B18,IC50,[10],850 nM
B19,VEGF-induced KDR phosphorylation in HUVECs (immunoblot),[1],≥ 50 % inhibition at 10 µM
B20,"IC50, VEGF-induced migration of HUVECs",[1],5 nM
B21,binding result,[11],binds
B22,IC50 in the activation assay against that of D2,[1],≥ 100 fold lower than D2
B23,binding result,[12],binds
B24,IC50 (read off the curve),[13],~30 nM
same,IC50 (read off the curve),[14],~20 nM
B25,VEGF-induced KDR phosphorylation in HUVECs (immunoblot),[1],≥ 50 % inhibition at 10 µM
